Laboratory results as given in publication PMC2808246, “Mycobacterial Nucleoside Diphosphate Kinase Blocks Phagosome Maturation in Murine Raw 264.7 Macrophages” (PLoS ONE, 2010).

Assays:
[1] = target: T1, Rab5a GTPase, recombinant, GTP-loaded (UniProt P20339 1-215); assay: cell-based or functional assay
T1 sequence: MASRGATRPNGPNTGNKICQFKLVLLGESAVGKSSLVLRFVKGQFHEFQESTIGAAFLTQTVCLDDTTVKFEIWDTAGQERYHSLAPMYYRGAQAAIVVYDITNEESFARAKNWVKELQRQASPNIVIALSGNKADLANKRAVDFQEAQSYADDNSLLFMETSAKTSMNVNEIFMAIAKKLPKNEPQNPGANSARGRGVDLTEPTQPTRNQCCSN

[2] = target: Rab7 GTPase, recombinant, GTP-loaded (UniProt P51149 1-207); assay: cell-based or functional assay
Sequence of Rab7 GTPase, recombinant, GTP-loaded (P51149 whole entry): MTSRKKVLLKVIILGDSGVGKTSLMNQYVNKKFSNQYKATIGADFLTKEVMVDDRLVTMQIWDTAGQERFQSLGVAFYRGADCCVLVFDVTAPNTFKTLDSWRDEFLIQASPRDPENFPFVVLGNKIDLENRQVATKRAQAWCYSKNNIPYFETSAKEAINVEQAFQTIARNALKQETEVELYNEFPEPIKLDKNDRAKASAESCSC

B1: Mycobacterium smegmatis nucleoside diphosphate kinase (Ndk), recombinant (enzyme)
chain: MTERTLVLIKPDGVKRQLVGEILSRIERKGLTLAALELKNVSDDLARQHYAEHADKPFFGSLLEFITSGPLVAAIVEGPRAVAAFRQIAGGTDPVEKAVPGTIRGDFALITQDNLVHGSDSPESAAREIALWFPGEATA
[1]
  GAP activity: reduction of [γ-32P]GTP bound to Rab5 spotted on nitrocellulose, after 2 h with 10 µg/ml Ndk, relative to untreated: 35%

B2: Mycobacterium tuberculosis nucleoside diphosphate kinase (Ndk), recombinant (enzyme)
chain: MTERTLVLIKPDGIERQLIGEIISRIERKGLTIAALQLRTVSAELASQHYAEHEGKPFFGSLLEFITSGPVVAAIVEGTRAIAAVRQLAGGTDPVQAAAPGTIRGDFALETQFNLVHGSDSAESAQREIALWFPGA
[2]
  GAP activity: depletion of the gamma phosphate of [γ-32P]GTP bound to Rab7 spotted on nitrocellulose, after 2 h with 10 µg/ml Ndk, relative to untreated: 90%
[1]
  GAP activity: depletion of the gamma phosphate of [γ-32P]GTP bound to Rab5 spotted on nitrocellulose, after 2 h with 10 µg/ml Ndk, relative to untreated: 95%
